Measurements taken from article PMC9482650, “Quantitative fragmentomics allow affinity mapping of interactomes” (Nature Communications, 2022).

What was measured:
Assay in all cases: holdup assay
Set-up in all cases: key: below the threshold = too weak to quantify, mostly under pKd 3.1 to 4
ARHGEF11, O15085 = biological target: T1, ARHGEF11, O15085
T1 sequence (O15085 42-136, limits assumed, looked up): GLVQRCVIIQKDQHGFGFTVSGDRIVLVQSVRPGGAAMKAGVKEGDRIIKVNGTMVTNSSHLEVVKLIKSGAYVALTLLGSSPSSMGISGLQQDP

SCRIB_1, Q14160 = biological target: SCRIB_1, Q14160
GRIP2_4, Q9C0E4 = biological target: GRIP2_4, Q9C0E4
IL16_4, Q14005 = biological target: IL16_4, Q14005
LNX1_2, Q8TBB1 = biological target: LNX1_2, Q8TBB1
SNX27, Q96L92 = biological target: SNX27, Q96L92
MAGI1_1, Q96QZ7 = biological target: MAGI1_1, Q96QZ7
GRIP2_6, Q9C0E4 = biological target: GRIP2_6, Q9C0E4
LRRC7, Q96NW7 = biological target: T2, LRRC7, Q96NW7
T2 sequence (Q96NW7 1440-1537, limits assumed, looked up): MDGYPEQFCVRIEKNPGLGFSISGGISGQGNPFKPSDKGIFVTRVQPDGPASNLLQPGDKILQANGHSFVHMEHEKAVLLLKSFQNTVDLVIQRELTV

PTPN3, P26045 = biological target: PTPN3, P26045
DLG4_2, P78352 = biological target: DLG4_2, P78352
FRMPD3, Q5JV73 = biological target: FRMPD3, Q5JV73
APBA3_1, O96018 = biological target: T3, APBA3_1, O96018
T3 sequence (O96018 389-490, limits assumed, looked up): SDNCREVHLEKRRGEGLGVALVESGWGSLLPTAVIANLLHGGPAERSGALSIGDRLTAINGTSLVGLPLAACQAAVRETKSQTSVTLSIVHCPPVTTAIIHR

GRIP1_4, Q9Y3R0 = biological target: T4, GRIP1_4, Q9Y3R0
T4 sequence (Q9Y3R0 467-571, limits assumed, looked up): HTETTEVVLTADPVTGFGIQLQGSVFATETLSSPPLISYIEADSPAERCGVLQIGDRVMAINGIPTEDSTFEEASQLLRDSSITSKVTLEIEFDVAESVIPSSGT

HTRA3, P83110 = biological target: T5, HTRA3, P83110
T5 sequence (P83110 354-453, limits assumed, looked up): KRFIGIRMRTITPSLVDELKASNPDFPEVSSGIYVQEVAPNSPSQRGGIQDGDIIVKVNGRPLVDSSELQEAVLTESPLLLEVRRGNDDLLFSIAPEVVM

DFNB31_1, Q9P202 = biological target: T6, DFNB31_1, Q9P202
T6 sequence (Q9P202 135-233, limits assumed, looked up): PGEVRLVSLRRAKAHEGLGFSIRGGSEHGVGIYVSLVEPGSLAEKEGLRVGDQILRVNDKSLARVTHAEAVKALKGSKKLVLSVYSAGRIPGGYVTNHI

PDZD2_2, O15018 = biological target: T7, PDZD2_2, O15018
T7 sequence (O15018 329-429, limits assumed, looked up): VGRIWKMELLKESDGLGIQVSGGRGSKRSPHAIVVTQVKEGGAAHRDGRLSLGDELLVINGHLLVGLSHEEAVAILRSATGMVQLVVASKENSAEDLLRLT

GRID2IP_2, A4D2P6 = biological target: GRID2IP_2, A4D2P6
LNX2_3, Q8N448 = biological target: T8, LNX2_3, Q8N448
T8 sequence (Q8N448 463-564, limits assumed, looked up): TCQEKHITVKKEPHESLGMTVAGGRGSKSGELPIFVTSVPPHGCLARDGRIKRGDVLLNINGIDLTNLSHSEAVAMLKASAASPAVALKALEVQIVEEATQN

TJP2_1, Q9UDY2 = biological target: TJP2_1, Q9UDY2
PARD3_3, Q8TEW0 = biological target: PARD3_3, Q8TEW0
MAST2, Q6P0Q8 = biological target: MAST2, Q6P0Q8
NHERF4_4, Q86UT5 = biological target: NHERF4_4, Q86UT5
IL16_1, Q14005 = biological target: IL16_1, Q14005
SYNJ2BP, P57105 = biological target: T9, SYNJ2BP, P57105
T9 sequence (P57105 8-110, limits assumed, looked up): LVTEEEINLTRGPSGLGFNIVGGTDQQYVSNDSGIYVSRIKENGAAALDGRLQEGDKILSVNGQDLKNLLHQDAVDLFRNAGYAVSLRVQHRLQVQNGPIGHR

DLG3_1, Q92796 = biological target: T10, DLG3_1, Q92796
T10 sequence (Q92796 125-227, limits assumed, looked up): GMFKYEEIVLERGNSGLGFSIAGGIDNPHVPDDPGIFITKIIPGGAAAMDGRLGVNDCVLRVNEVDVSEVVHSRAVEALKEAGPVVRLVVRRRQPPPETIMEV

MAGI3_2, Q5TCQ9 = biological target: MAGI3_2, Q5TCQ9
[1] = plain residues with an end cap or a label only (N-terminal biotin on a linker: ahx)
[2] = plain residues with an end cap or a label only (N-terminal biotin on a linker: gsgsgs; C-terminal amide)

Sequence of GRIP2_4, Q9C0E4 (Q9C0E4 446-548): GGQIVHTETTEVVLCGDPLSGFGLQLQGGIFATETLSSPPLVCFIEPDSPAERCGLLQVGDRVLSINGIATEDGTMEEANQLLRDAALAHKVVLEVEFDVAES
Sequence of PARD3_3, Q8TEW0 (Q8TEW0 582-685): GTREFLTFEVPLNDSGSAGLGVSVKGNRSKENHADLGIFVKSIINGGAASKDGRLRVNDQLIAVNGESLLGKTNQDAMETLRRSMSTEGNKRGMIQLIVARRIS
Sequence of IL16_1, Q14005 (Q14005 210-306): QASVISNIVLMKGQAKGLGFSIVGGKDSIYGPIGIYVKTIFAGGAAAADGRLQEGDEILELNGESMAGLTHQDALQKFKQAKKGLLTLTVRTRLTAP
Sequence of DLG4_2, P78352 (P78352 155-259): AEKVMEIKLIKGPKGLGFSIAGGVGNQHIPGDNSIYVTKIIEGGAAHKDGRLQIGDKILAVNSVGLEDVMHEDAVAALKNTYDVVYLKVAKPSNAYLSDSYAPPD
Sequence of MAGI3_2, Q5TCQ9 (Q5TCQ9 398-503): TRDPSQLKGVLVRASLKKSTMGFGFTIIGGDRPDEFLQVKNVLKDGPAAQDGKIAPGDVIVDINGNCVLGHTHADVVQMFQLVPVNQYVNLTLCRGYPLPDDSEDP
Sequence of GRIP2_6, Q9C0E4 (Q9C0E4 648-740): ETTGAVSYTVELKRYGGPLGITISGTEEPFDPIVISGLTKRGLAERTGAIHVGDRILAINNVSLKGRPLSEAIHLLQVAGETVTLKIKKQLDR
Sequence of NHERF4_4, Q86UT5 (Q86UT5 464-550): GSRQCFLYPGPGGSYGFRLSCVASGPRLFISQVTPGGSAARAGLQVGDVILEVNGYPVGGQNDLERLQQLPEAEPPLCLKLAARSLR
Sequence of PTPN3, P26045 (P26045 505-587): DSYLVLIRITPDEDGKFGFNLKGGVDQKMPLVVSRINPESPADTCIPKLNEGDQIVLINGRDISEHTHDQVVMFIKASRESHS
Sequence of SCRIB_1, Q14160 (Q14160 718-814): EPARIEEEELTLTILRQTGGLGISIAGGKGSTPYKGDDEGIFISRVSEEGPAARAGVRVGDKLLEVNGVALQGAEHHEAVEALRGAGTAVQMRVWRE
Sequence of IL16_4, Q14005 (Q14005 1229-1329): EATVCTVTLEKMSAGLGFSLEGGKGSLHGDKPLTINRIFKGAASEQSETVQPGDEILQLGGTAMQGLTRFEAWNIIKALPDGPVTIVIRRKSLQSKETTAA
Sequence of LNX1_2, Q8TBB1 (Q8TBB1 371-470): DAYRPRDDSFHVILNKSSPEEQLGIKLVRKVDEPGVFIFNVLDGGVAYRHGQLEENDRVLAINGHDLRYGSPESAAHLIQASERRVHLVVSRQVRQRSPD
Sequence of GRID2IP_2, A4D2P6 (A4D2P6 272-370): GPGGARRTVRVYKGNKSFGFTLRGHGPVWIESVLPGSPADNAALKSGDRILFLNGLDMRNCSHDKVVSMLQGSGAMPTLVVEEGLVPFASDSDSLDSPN
Sequence of MAGI1_1, Q96QZ7 (Q96QZ7 1-106): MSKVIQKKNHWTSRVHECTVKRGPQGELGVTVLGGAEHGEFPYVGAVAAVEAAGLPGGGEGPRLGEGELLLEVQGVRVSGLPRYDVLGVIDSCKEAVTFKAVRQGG
Sequence of TJP2_1, Q9UDY2 (Q9UDY2 24-128): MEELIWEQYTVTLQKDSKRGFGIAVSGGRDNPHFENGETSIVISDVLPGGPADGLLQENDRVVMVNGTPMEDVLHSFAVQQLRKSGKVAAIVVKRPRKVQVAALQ
Sequence of FRMPD3, Q5JV73 (Q5JV73 12-100): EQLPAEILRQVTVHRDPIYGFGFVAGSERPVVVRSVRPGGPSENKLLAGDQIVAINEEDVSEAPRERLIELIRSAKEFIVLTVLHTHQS
Sequence of MAST2, Q6P0Q8 (Q6P0Q8 1099-1202): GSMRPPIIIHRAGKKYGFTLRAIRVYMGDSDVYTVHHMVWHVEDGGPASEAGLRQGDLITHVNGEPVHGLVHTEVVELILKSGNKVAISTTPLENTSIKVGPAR

**Q.** Which pKd (ARHGEF11, O15085; [1]) does the source give for TVICWPGSLV [LNX2, Q8N448] here?
**A.** The pKd was 3.58.

**Q.** And the pKd (SCRIB_1, Q14160; [1])?
**A.** The pKd was “below the threshold”.

**Q.** What about the pKd (GRIP2_4, Q9C0E4; [1]) of the same binder?
**A.** Its pKd is “below the threshold”.

**Q.** What about the pKd (IL16_4, Q14005; [1]) of the same binder?
**A.** Its pKd is “below the threshold”.

**Q.** What about the pKd (LNX1_2, Q8TBB1; [1]) of the same binder?
**A.** The pKd was 3.99.

**Q.** And the pKd (SNX27, Q96L92; [1])?
**A.** Its pKd is 3.95.

**Q.** And the pKd (MAGI1_1, Q96QZ7; [1])?
**A.** The pKd was “below the threshold”.

**Q.** What about the pKd (GRIP2_6, Q9C0E4; [1]) of the same binder?
**A.** The pKd was “below the threshold”.

**Q.** And the pKd (LRRC7, Q96NW7; [1])?
**A.** The pKd was “below the threshold”.

**Q.** What about the pKd (PTPN3, P26045; [1]) of the same binder?
**A.** The pKd was 4.23.

**Q.** What about the pKd (DLG4_2, P78352; [1]) of the same binder?
**A.** The pKd was 4.36.

**Q.** And the pKd (FRMPD3, Q5JV73; [1])?
**A.** The pKd was “below the threshold”.

**Q.** And the pKd (APBA3_1, O96018; [1])?
**A.** The pKd was “below the threshold”.

**Q.** And the pKd (GRIP1_4, Q9Y3R0; [1])?
**A.** The pKd was “below the threshold”.

**Q.** What about the pKd (HTRA3, P83110; [1]) of the same binder?
**A.** Its pKd is 3.85.

**Q.** What about the pKd (DFNB31_1, Q9P202; [1]) of the same binder?
**A.** Its pKd is “below the threshold”.

**Q.** What about the pKd (PDZD2_2, O15018; [1]) of the same binder?
**A.** Its pKd is 5.07.

**Q.** And the pKd (GRID2IP_2, A4D2P6; [1])?
**A.** The pKd was 3.95.

**Q.** What about the pKd (LNX2_3, Q8N448; [1]) of the same binder?
**A.** Its pKd is 3.65.

**Q.** What about the pKd (TJP2_1, Q9UDY2; [1]) of the same binder?
**A.** The pKd was 3.9.

**Q.** And the pKd (PARD3_3, Q8TEW0; [1])?
**A.** Its pKd is 3.68.

**Q.** What about the pKd (MAST2, Q6P0Q8; [1]) of the same binder?
**A.** Its pKd is 4.1.

**Q.** What about the pKd (NHERF4_4, Q86UT5; [1]) of the same binder?
**A.** Its pKd is “below the threshold”.

**Q.** What about the pKd (IL16_1, Q14005; [1]) of the same binder?
**A.** Its pKd is 4.54.

**Q.** What about the pKd (SYNJ2BP, P57105; [1]) of the same binder?
**A.** Its pKd is 5.53.

**Q.** And the pKd (DLG3_1, Q92796; [1])?
**A.** Its pKd is 4.01.

**Q.** And the pKd (MAGI3_2, Q5TCQ9; [1])?
**A.** Its pKd is 4.58.

**Q.** Which results are given for VSVDDVRSTSQGLSSY [DFNB31_int, Q9P202]?
**A.** pKd (ARHGEF11, O15085; [2]): below the threshold; pKd (SCRIB_1, Q14160; [2]): below the threshold; pKd (GRIP2_4, Q9C0E4; [2]): below the threshold; pKd (IL16_4, Q14005; [2]): below the threshold; pKd (LNX1_2, Q8TBB1; [2]): below the threshold; pKd (SNX27, Q96L92; [2]): below the threshold; pKd (MAGI1_1, Q96QZ7; [2]): below the threshold; pKd (GRIP2_6, Q9C0E4; [2]): below the threshold; pKd (LRRC7, Q96NW7; [2]): below the threshold; pKd (PTPN3, P26045; [2]): 3.68; pKd (DLG4_2, P78352; [2]): below the threshold; pKd (FRMPD3, Q5JV73; [2]): below the threshold; pKd (APBA3_1, O96018; [2]): below the threshold; pKd (GRIP1_4, Q9Y3R0; [2]): below the threshold; pKd (HTRA3, P83110; [2]): below the threshold; pKd (DFNB31_1, Q9P202; [2]): below the threshold; pKd (PDZD2_2, O15018; [2]): below the threshold; pKd (GRID2IP_2, A4D2P6; [2]): below the threshold; pKd (LNX2_3, Q8N448; [2]): below the threshold; pKd (TJP2_1, Q9UDY2; [2]): below the threshold; pKd (PARD3_3, Q8TEW0; [2]): below the threshold; pKd (MAST2, Q6P0Q8; [2]): below the threshold; pKd (NHERF4_4, Q86UT5; [2]): below the threshold; pKd (IL16_1, Q14005; [2]): below the threshold; pKd (SYNJ2BP, P57105; [2]): below the threshold; pKd (DLG3_1, Q92796; [2]): below the threshold; pKd (MAGI3_2, Q5TCQ9; [2]): below the threshold

**Q.** Which pKd (ARHGEF11, O15085; [1]) does the source give for PSASCAVTAA [PDLIM4, P50479;P50479-2] here?
**A.** The pKd was “below the threshold”.

**Q.** And the pKd (SCRIB_1, Q14160; [1])?
**A.** The pKd was “below the threshold”.

**Q.** And the pKd (GRIP2_4, Q9C0E4; [1])?
**A.** The pKd was “below the threshold”.

**Q.** And the pKd (IL16_4, Q14005; [1])?
**A.** The pKd was “below the threshold”.

**Q.** What about the pKd (LNX1_2, Q8TBB1; [1]) of the same binder?
**A.** The pKd was “below the threshold”.

**Q.** What about the pKd (SNX27, Q96L92; [1]) of the same binder?
**A.** Its pKd is “below the threshold”.

**Q.** And the pKd (MAGI1_1, Q96QZ7; [1])?
**A.** The pKd was “below the threshold”.

**Q.** What about the pKd (GRIP2_6, Q9C0E4; [1]) of the same binder?
**A.** The pKd was “below the threshold”.

**Q.** And the pKd (LRRC7, Q96NW7; [1])?
**A.** The pKd was “below the threshold”.

**Q.** And the pKd (PTPN3, P26045; [1])?
**A.** Its pKd is “below the threshold”.

**Q.** What about the pKd (DLG4_2, P78352; [1]) of the same binder?
**A.** Its pKd is “below the threshold”.

**Q.** And the pKd (FRMPD3, Q5JV73; [1])?
**A.** Its pKd is “below the threshold”.

**Q.** What about the pKd (APBA3_1, O96018; [1]) of the same binder?
**A.** Its pKd is “below the threshold”.

**Q.** What about the pKd (GRIP1_4, Q9Y3R0; [1]) of the same binder?
**A.** The pKd was “below the threshold”.

**Q.** And the pKd (HTRA3, P83110; [1])?
**A.** Its pKd is “below the threshold”.

**Q.** And the pKd (DFNB31_1, Q9P202; [1])?
**A.** Its pKd is “below the threshold”.

**Q.** What about the pKd (PDZD2_2, O15018; [1]) of the same binder?
**A.** The pKd was “below the threshold”.

**Q.** And the pKd (GRID2IP_2, A4D2P6; [1])?
**A.** Its pKd is “below the threshold”.

**Q.** And the pKd (LNX2_3, Q8N448; [1])?
**A.** The pKd was “below the threshold”.

**Q.** What about the pKd (TJP2_1, Q9UDY2; [1]) of the same binder?
**A.** The pKd was “below the threshold”.

**Q.** And the pKd (PARD3_3, Q8TEW0; [1])?
**A.** Its pKd is “below the threshold”.

**Q.** What about the pKd (MAST2, Q6P0Q8; [1]) of the same binder?
**A.** The pKd was “below the threshold”.

**Q.** What about the pKd (NHERF4_4, Q86UT5; [1]) of the same binder?
**A.** Its pKd is “below the threshold”.

**Q.** What about the pKd (IL16_1, Q14005; [1]) of the same binder?
**A.** Its pKd is “below the threshold”.

**Q.** What about the pKd (SYNJ2BP, P57105; [1]) of the same binder?
**A.** Its pKd is “below the threshold”.

**Q.** And the pKd (DLG3_1, Q92796; [1])?
**A.** The pKd was “below the threshold”.

**Q.** What about the pKd (MAGI3_2, Q5TCQ9; [1]) of the same binder?
**A.** Its pKd is “below the threshold”.
